Target: mCer-α1 (human Na+/K+-ATPase α1 subunit fused to the C-terminus of mCerulean) (human, UniProt P05023 1-1023)
Experiment: FRET or BRET

B1: PLM-YFP (human phospholemman fused to the N-terminus of YFP) (natural protein)
chain: ESPKEHDPFTYDYQSLQIGGLVIAGILFILGILIVLSRRCRCKFNQQQRTGEPDEEEGTFRSSIRRLSTRRR
Question: For B1, which “stoichiometry N” value is on record?
Answer: > 1

Reference: article doi:10.1101/2021.10.12.464104 (bioRxiv, 2021)
